Laboratory results published in paper PMC4479245, “The HDAC6/APOBEC3G complex regulates HIV-1 infectiveness by inducing Vif autophagic degradation” (Retrovirology, 2015).
Residue numbers refer to the chain shown, from its start. Numbers in names are those of the source.

T1: HA-wt-HDAC6 (in vitro translated) (human, UniProt Q9UBN7 1-1215)
T1 construct: also called HA-HDAC6; source: in vitro translated (rabbit-reticulocytes system), purified on anti-HA agarose; not shown: HA, N-terminal, kept
T1 sequence (looked up): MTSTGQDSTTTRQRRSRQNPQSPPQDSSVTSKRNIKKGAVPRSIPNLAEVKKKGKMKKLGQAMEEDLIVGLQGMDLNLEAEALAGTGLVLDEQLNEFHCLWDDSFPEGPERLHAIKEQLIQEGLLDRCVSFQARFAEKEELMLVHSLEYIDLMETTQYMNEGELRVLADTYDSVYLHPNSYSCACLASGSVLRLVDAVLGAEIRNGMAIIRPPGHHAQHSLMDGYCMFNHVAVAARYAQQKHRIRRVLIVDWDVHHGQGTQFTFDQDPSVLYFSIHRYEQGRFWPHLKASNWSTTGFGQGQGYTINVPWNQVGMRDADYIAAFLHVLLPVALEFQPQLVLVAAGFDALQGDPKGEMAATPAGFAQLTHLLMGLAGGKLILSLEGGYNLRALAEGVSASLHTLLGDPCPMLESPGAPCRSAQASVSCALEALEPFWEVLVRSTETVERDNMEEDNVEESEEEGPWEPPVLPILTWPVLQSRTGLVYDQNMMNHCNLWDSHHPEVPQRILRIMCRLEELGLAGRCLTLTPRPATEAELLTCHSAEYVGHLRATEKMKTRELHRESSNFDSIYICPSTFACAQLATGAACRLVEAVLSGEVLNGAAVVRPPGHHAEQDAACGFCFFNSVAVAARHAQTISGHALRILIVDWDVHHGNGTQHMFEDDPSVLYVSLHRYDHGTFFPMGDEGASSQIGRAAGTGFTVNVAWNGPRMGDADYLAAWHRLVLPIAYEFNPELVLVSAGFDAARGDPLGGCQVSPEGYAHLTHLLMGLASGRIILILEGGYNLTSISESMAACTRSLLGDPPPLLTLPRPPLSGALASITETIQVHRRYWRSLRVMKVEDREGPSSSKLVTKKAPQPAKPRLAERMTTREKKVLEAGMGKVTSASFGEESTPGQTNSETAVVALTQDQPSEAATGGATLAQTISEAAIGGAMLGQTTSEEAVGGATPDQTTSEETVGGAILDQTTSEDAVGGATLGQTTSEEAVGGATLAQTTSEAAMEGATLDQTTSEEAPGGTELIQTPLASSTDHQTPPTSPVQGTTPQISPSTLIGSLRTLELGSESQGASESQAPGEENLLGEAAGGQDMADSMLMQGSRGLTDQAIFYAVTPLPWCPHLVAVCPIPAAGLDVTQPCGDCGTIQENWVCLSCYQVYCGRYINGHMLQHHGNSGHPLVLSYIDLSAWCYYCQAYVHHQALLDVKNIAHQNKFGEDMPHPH

T2: HA-dm-HDAC6 (in vitro translated) (human, UniProt Q9UBN7 1-1215, H216A | H611A)
T2 construct: also called dead-mutant (dm) HDAC6; H216A/H611A; not shown: HA, N-terminal, kept
T2 sequence (looked up): T1 sequence (looked up) with H216A, H611A

B1: GST-A3G (natural protein, human, UniProt Q9HC16 1-384, looked up)
chain: MKPHFRNTVERMYRDTFSYNFYNRPILSRRNTVWLCYEVKTKGPSRPPLDAKIFRGQVYSELKYHPEMRFFHWFSKWRKLHRDQEYEVTWYISWSPCTKCTRDMATFLAEDPKVTLTIFVARLYYFWDPDYQEALRSLCQKRDGPRATMKIMNYDEFQHCWSKFVYSQRELFEPWNNLPKYYILLHIMLGEILRHSMDPPTFTFNFNNEPWVRGRHETYLCYEVERMHNDTWVLLNQRRGFLCNQAPHKHGFLEGRHAELCFLDVIPFWKLDLDQDYRVTCFTSWSPCFSCAQEMAKFISKNKHVSLCIFTARIYDDQGRCQEGLRTLAEAGAKISIMTYSEFKHCWDTFVDHQGCPFQPWDGLDEHSQDLSGRLRAILQNQEN
notes: also called wt-A3G; GST-A3G (wt); source: E. coli BL21-DE3, purified on GSH-Sepharose
B2: GST-Vif (natural protein)
chain: not shown
notes: source: E. coli BL21-DE3, purified on GSH-Sepharose
B3: GST-A3G-D128K (natural protein, human, UniProt Q9HC16 1-384, looked up)
chain: B1 chain with D128K
notes: as for B2
B4: GST-A3G-C97A (natural protein, human, UniProt Q9HC16 1-384, looked up)
chain: B1 chain with C97A
notes: as for B2

Columns and labels:
[1] = target: T1, HA-wt-HDAC6 (in vitro translated); experiment: pull-down; 3 μg GST fusion protein immobilised on glutathione-Sepharose beads, 2 μg purified in vitro translated HA-tagged protein, overnight in RIPA buffer at 4°C, three washes; anti-HA blot; conditions: both partners purified
[2] = target: T2, HA-dm-HDAC6 (in vitro translated); experiment: as above; conditions: both partners purified

Row | Binder | binding result [1] | binding result [2]
1 | B1 | binds | binds
2 | B2 | binds | 
3 | B3 | binds | binds
4 | B4 | binds | binds
